From paper PMC5532264

Columns and labels:
[1] = AFM, tether rupture events per retraction; details: glycan lost; control: DC-SIGN-WT
[2] = cell surface expression by flow cytometry, CHO; details: glycan lost; control: DC-SIGN-WT
[3] = linear fit to averaged AFM retraction FD-curves; details: glycan lost; control: untreated CHO-DC-SIGN-WT

B1: DC-SIGN (CD209): N80A (protein)
parent chain: MSDSKEPRLQQLGLLEEEQLRGLGFRQTRGYKSLAGCLGHGPLVLQLLSFTLLAGLLVQVSKVPSSISQEQSRQDAIYQNLTQLKAAVGELSEKSKLQEIYQELTQLKAAVGELPEKSKLQEIYQELTRLKAAVGELPEKSKLQEIYQELTWLKAAVGELPEKSKMQEIYQELTRLKAAVGELPEKSKQQEIYQELTRLKAAVGELPEKSKQQEIYQELTRLKAAVGELPEKSKQQEIYQELTQLKAAVERLCHPCPWEWTFFQGNCYFMSNSQRNWHDSITACKEVGAQLVVIKSAEEQNFLQLQSSRSNRFTWMGLSDLNQEGTWQWVDGSPLLPSFKQYWNRGEPNNVGEEDCAEFSGNGWNDDKCNLAKFWICKKSAASCSRDEEQFLSPAPATPNPPPA
other: membrane tether formation [1]: no change | expression_or_secretion [2]: no change | other: adhesion-site elasticity (cell stiffening), fold_change [3]: decreases
